Experiment: yeast display, Sf9 membrane polyspecificity reagent, FACS + sequencing; frameworks hold sequencing errors
In short: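 Polyreactivity labels are assigned by the sorting gate from which each nanobody was recovered. The gates were low and high (top ~1%), set on anti-HA fluorescence for expression and streptavidin fluorescence for reagent binding. Before sorting, galactose-induced (36–48 hours) yeast display cells were stained for 1 hour at 4 °C with 10% biotinylated, detergent-solubilized Sf9 membrane reagent.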
In the case of “QVQLGESGGGLVKAGGSLRLSCAASGRIFFDYGMGGYRQAPGKERELVADITRGGGSTYYADSVKGRFTISRDNAKNTVYLQINSQKPEDTAVYYCAKESSCYYPQRFDYWGQVTQVTVSS”, the “polyreactivity (PSR sort gate)” value is reported as “low polyreactivity”.
With “QVQLVESGGGLVQAGGSLRLSCAASGSIFNTYAMGWYRQAPGKERELVAAISRSGDSTYYADSVKGRFTISRDNAKNTVYVQMNSLKPEDSAVYYCATGRTDHGYYYWGQGTQVTVSS” the “polyreactivity (PSR sort gate)” value was “high polyreactivity”.
For “QVQLVESGGGLVQAGGSLRLSSAASGFIFIIYAMGWYRPAPGKERELVAGIRWSGGSTYYADSVKGRFTISRDNAKNTVYLQMNSLKPEDTAVYYCNKDRGSLTLYTYDYWGQGTQVTVSS”, the “polyreactivity (PSR sort gate)” value was “low polyreactivity”.
With “QVQLVESGGGLVQAGGSLRLSCDASGRTLGGYTMGWYRQAPGKERELVAAITTGGSTNYADSVKGRFTISRDNAKNTVYLQMNSLKPEDTAVYYCATDLVFDKRYWYDYWGQGTQVTVSS” the “polyreactivity (PSR sort gate)” value was “low polyreactivity”.
With “QVQLVESGGGLFHAGGSLRLSCAASGRTFGIYAMGGSRQAPGKERELVAAITWSGDSTYYADSVKGRFTISRDNAKNTVYLQMNRLKPEDTAVYYCAADYVGVTSVRYDYWGQGTQVTVSS” the “polyreactivity (PSR sort gate)” value was “low polyreactivity”.
In the case of “QVQLVESGGGLVQAGGSLRLSCAASGLIFSAYAMGWYRQAPGKERELVAGISRRGSTYYADSVKGRFTISRDNAKNTVYLEMNCLKPEDTAVYYFAAFFRVRFRASGYDYWGQGTQVTVSS”, the “polyreactivity (PSR sort gate)” value is reported as “high polyreactivity”.
In the case of “QVQLVESGGGLVQAGGSLRLSCAASGLTFIHYAMGWYRQAPGKEREFVAAISTNSGSTYYADSVKGRFTISRDNAKNTVYLQMNSLKPEDTAVYYCAARGLRWRIDGEYWGQGTQVTVSS”, the “polyreactivity (PSR sort gate)” value is reported as “high polyreactivity”.
For “QVQLVESGGGLVQAGGSLRLSCAASGRTFGKNAMGWYRQAPGKERELVAAISWSGGRTYYADSVKGRFTISRDNAKNTVYLQMNSVKPVDTAVYYCATASYRNPSDYWGQGTQVTVSS”, the “polyreactivity (PSR sort gate)” value was “high polyreactivity”.
With “QVQLVESGGGLVQAGGSLRLSCAASGFTFRVYAMGWYIQAPGKERELVAAITKRGGTTYYADSVKGRFTISRDNAKNTVYLQMNSLKPEDTAVYYCATENTPHYASHGYLGQGTQVTVSS” the “polyreactivity (PSR sort gate)” value was “high polyreactivity”.
In the case of “QVQLVESGGGLVQAGGSLRKSCAASGRIFSANAIGWYRKAPGTEWELVAAITCSGGSTYYADSVKGRFTISRDTAKNTVYLQMHSLKPEETAVYYCAAESAAYGGGTSDAGYESDYWGQGTQVTVSS”, the “polyreactivity (PSR sort gate)” value is reported as “low polyreactivity”.
For “QVQLQESGGGLVQAGGSQRLSCAASGYIFYFQYMGWYRQAPGKEREFVAAISDGANTNYADSVKGRFTISRDNAKNTEYLQMNSLKPEDTAVYYCAVYADENYYYIYWGQGTQVTVRS”, the “polyreactivity (PSR sort gate)” value was “low polyreactivity”.
With “QVQLVESGGGLVQAGGSLRLSCAASGSIFPRNVMGWYRQEPGKERQLVAVITARGGSTYYADSVKGRFTISRDNAKNTVYLQMNSLKPEDTAVYYCATPYSRRKIPPNYDYWGLGTQVTVSS” the “polyreactivity (PSR sort gate)” value was “high polyreactivity”.
With “QVQLVESGGGLVQEGGSLRLSCAASGSTFWVYVMGWYRPAAGKERELVAGISSRGGNTYYADSVKGRFTISRDKAKNSVYLQMNSLKPEDTAVYYCNAPYGGDYESARDYWGQGTQVTVSS” the “polyreactivity (PSR sort gate)” value was “low polyreactivity”.
In the case of “QDQLVESGGGLVQAGGSLRLSCAASGITFYRNAMGWYRQAPGKERELVAAISRRGGITRYADSVKGRFTISRDNAKNTVYLQMNSLKPEDTAVYYCAKAIGSTALRRATEDYWGQGTQVTVSS”, the “polyreactivity (PSR sort gate)” value is reported as “high polyreactivity”.
With “QVQLEESGGGLVQAGGSLRLSCAASGFTFGRYPLGWYRQAPGKERELVAAITRGSGGTYYADSVKGRFTISRDNAKNTVYLQMNSLKPEDTAVYYCNTASYRGYDYWGQGTQVTVSS” the “polyreactivity (PSR sort gate)” value was “high polyreactivity”.
For “QVQLEESGGGLVQAGGSLRLSCAASGRTFIKYAMGWYRQAPVNESELVAAITYSAGSTSYADSVKGRFTISRDNAKNTVYLQMNSRKPVDTAVYYCARRTRSYGYRSDYYYWGQGTQVTVSS”, the “polyreactivity (PSR sort gate)” value was “low polyreactivity”.
With “QVQLVESGGGLVQAGGSLRLSCAASGSTFGGYVMGWYRQAPGKERELVAAISGNGASTTYADSVKGRFTISRDNAKNTVYLQLNSLKPEDTAVYYCAALYRKAHSDYDYWGQVTQVTVSS” the “polyreactivity (PSR sort gate)” value was “low polyreactivity”.
With “QVQLVESGGGLVQAGGSLRLSCAASGSIFADNAMGWDRQAPGKERELVAAISRTGGSTYYADSVKGRFTISRDNSKNTVYLQMNSLKPEDTAVYYCAADNGYGRYRRYYYWGQGTQVTVSS” the “polyreactivity (PSR sort gate)” value was “high polyreactivity”.
With “QVQLVESGGGLVQAGGSLRLSCAASRSTFEGYAMGLYRQAPGKERELVAAITVSVGSTYYADSVKGRFTISRDNAKNTVYLQMNSLKPEDTAVYYCAADYDYQYRYYYWGQGTQVTVSS” the “polyreactivity (PSR sort gate)” value was “low polyreactivity”.
For “QVQLVESGGGLVQAGGSLRLSCDASGSTFPVNAMGWYRQAPGKERELVAAISSRGSSTYYADSVKGRFTISRDNAKNTVYLQMNSLKPEDTAVYYCAAPQRYPRFYYWGQGTQVTVSS”, the “polyreactivity (PSR sort gate)” value was “high polyreactivity”.
For “QVQLVESGGGLVQAGGSLRLSCAASGSTFSSNGMGWYRPAPGKERELVAAITSGGSTNYADSVKGRFTISRDNAKNTVYLQMNSLKPEDTAVYYCNAERTAYGGGDYWGQGTQVTVSS”, the “polyreactivity (PSR sort gate)” value was “low polyreactivity”.
In the case of “QVQLVESGGGLVQAGGSLRLSSAASGSIFQDYAMGWYRQEPGKERELVAGINWRGDDTYADSVKGRFTISRDNAKNTVYLQMNSLKPEDTAVYYCNAEDWGYGYDYWGQGTQVTVSS”, the “polyreactivity (PSR sort gate)” value is reported as “low polyreactivity”.
With “QVQLVESGGGLVQAGGSLRLSCAASGSTFGDNTMGWYRQAPGKERELVAAISRRGGSTYYADSVKGRFTISRDNAKNTVYLQMNSLKPEDTAVYYCADEWQQLGGPVYYWGQGTQVTVSS” the “polyreactivity (PSR sort gate)” value was “high polyreactivity”.
In the case of “QVQLVESGGGLVQAGGSLRLSCADSGFTFPSYTMGWYRQAPGKERDLDASIRVSGGRTYYADSVKGRFTISRDNAKNTVYLQMNSLKPEDTAVYYCAADYMTWWGGRYDYWGQGTQVTVSS”, the “polyreactivity (PSR sort gate)” value is reported as “high polyreactivity”.
With “QVQLVESGGGLVQAGGSLRLSCAASGSTFDIYAMGWYRQAPGNERELVAAISVSGGSTYYADSVKGRFTIARDNAKNTVDLQMNSLKPEDTAVYYCAAEAYTRFYQQFDYWGQGTQVTVSS” the “polyreactivity (PSR sort gate)” value was “high polyreactivity”.
In the case of “QVQLVESGGGLVQAGGSLRLSCAASGSTFVYYAMGWYRQAPGKERELVAAINYSSGSTYYADSVKGRFTISRDNAKNTVYLQMNSLKPEDTAVYYCATDLLYYQYYSDYDYWGQGTQVTVSS”, the “polyreactivity (PSR sort gate)” value is reported as “high polyreactivity”.
For “QVQLVESGGGLVQAGGSLRLSCAASGSTSYNAMGWYRQAPGKERELVAAISDGGGSTYYADSVKGRFTISRDNAKNTVYLQMNSLKPEDTAVYYCAADTITGDGYWGQGTQVTVSA”, the “polyreactivity (PSR sort gate)” value was “low polyreactivity”.
With “QVQLVESGGGLVQAGGSLRLSCAASGFTFAANAMGWYRQAPGKERELVAAISSDSTYADSVKGRFTISRDNAKNTVYLQMNSLKPEDTAVYYCAKDRYIVNSPGLDYWGQGTQVTVSS” the “polyreactivity (PSR sort gate)” value was “low polyreactivity”.
For “QVQLVESGGGLVQAGGSLRLSCAATRSIFFGYAMGWYRQAPGKEREFVAAITASGVRTYYADSVKGRFTISLDNAKNTVYLQMNSLKPEDTAVYYCAARIGTGVLPGRGANSHMDYWGQGTQVTVSS”, the “polyreactivity (PSR sort gate)” value was “low polyreactivity”.
For “QVQLVESGGGLVQAGGSLRLSSAASGRIFYKYAMGWNRQAPGKERELVAGITGSGGSTYYADSVKGRFTISRDNAKNTVYLQMNSLKPEDTAVYYCAKRVSYDYWGQGTQVTVSS”, the “polyreactivity (PSR sort gate)” value was “low polyreactivity”.
With “QVQLVESGGGLVQAGGSLRLICAASGFIFGDYTMGWYRPAPGKEREVVAAITWYGDSTYYADSVKGRFTISRDNAKNTVYLQMNTLKTEDTAVYYCNAVNDWYYAYYGVTSFRSYDYWGQGSQVTVSS” the “polyreactivity (PSR sort gate)” value was “low polyreactivity”.
In the case of “QVQLVESGGGLVQAGGSLRLSCAASGSTFGPYAMGWYRQAPGKERELVAAIRSDGGTYYADSVKGRFTISRDNAKNTVYLQMNSLKPEDTAVYYCNAVRGAAWRCYNSWQTYPRDYWGQGTQVTVSS”, the “polyreactivity (PSR sort gate)” value is reported as “high polyreactivity”.
In the case of “QVQLVESGGGLVQAGGSLRLSCAPSGFIFDYNAMGWYRQAPGKERELVAAISISGGGTYYADSVKGRFTISRDNAKNTVYLQMNSLKPEDTAVYYCATAGRYDAYDYWGQGTQVTVSS”, the “polyreactivity (PSR sort gate)” value is reported as “low polyreactivity”.
In the case of “QVQLVESGGGLVQAGGSLRLSGAASGSIFNRNAMGWYRQAPGKESELVARISWTAGSTYYADSEKARFTISRDYAKNTVYLQMNSLKPEDTAVYYCNDVKGYYDLYDKFDYWGQGTQVTVSS”, the “polyreactivity (PSR sort gate)” value is reported as “low polyreactivity”.
For “QVQLVESGGGLVQAGGSLRLSCAASGSIFYNYAMGWYRQAPGKEREFVAAISWSGDTTYYADSVKGRFTISRDNAKNTVYLQMNSLKPEDTAVYYCAAESYIWFWRPYYYWGQGTQVTVSS”, the “polyreactivity (PSR sort gate)” value was “low polyreactivity”.
With “QVQLVESGGGLVQAGGSLRLSCAASGRIFYSYAMGWYRQAPGKERELVATISSAGSTYYADAVKGRFTISRDNAKNTVYLQMNSLKPEDTAVYYCAARRPRRYGYWGQGTQVTVSS” the “polyreactivity (PSR sort gate)” value was “high polyreactivity”.
In the case of “EVQLVESGGGLVQAGGSLRLSCAASGTSFLLYAMGWYRQARGKERELLAAISSSGARTYYADSVKGRCTISRDNAKYTVYLQMNSLKPEDTAVYYCAASRRAYRSSYVSPFGYWGQGTQVTGSS”, the “polyreactivity (PSR sort gate)” value is reported as “high polyreactivity”.
For “QVQLVESGGGLVQAGGSLRLSCAASGSIFPGNALGWYRQAPGKERELVAVIDFSGASTYYADSVKGRFTISRDNAKNTVYLQMNRLKPEDTADYWGQGTQVTVSS”, the “polyreactivity (PSR sort gate)” value was “low polyreactivity”.
In the case of “QVQLVESGGGLVQAGGSIRLSCAASGIIFYYYAMGWYRQAPGKERELVAGISYSGGSTYADSVKGRFTISRDNAKNTVYLQMNSLKPEDTAVYYCAADYDYGGHWYDYWGQGTQVTVSS”, the “polyreactivity (PSR sort gate)” value is reported as “low polyreactivity”.
With “QVQLVESGGGLVQAGGSLRLSCAASGITFFENAMGWYRQAPGKERELVAASSYSGGSTYYADSVKGRFTISRDNAKNTVYLQMYRLKPEDTAVYSCAADWYNFLYIRNRWGYGYWGQGSQVTVSS” the “polyreactivity (PSR sort gate)” value was “high polyreactivity”.
With “HFQLVESGGGLVQAGGSLRLSCAASGFTFNDMGWYRLATGKERELVARIDSDDTTNYADSVKGRFTISRDNAKKTVYVLMNSLKPEDTAVYYCNKDYAWLSYQDYDYWGQGTQVTVSS” the “polyreactivity (PSR sort gate)” value was “low polyreactivity”.
With “QVQLVESGGGLVQAGGSLRLSCAASGRTFVYYAMGWYRQAPGKERELVAAITSVGSTYYADSVKGRCTISRDNAKNTVYLQMNSLKPEDTAVYSCAKDTWAYPYYWPYDDYWGHGTQVTVSS” the “polyreactivity (PSR sort gate)” value was “low polyreactivity”.
With “QVQLVESGGGLVQAGGSLRLSCAASGSTFVTYAMGWYRQAPGKERELVAAITTSGGSTYYADSVKGRFTISRANAMNTVYLQMNSLKPEDTAVYYCIAGFEYTQEYDYWGQGTQVTVSS” the “polyreactivity (PSR sort gate)” value was “low polyreactivity”.

Reference: the nanobody polyreactivity screen of Harvey et al. (2022)
